Reference: paper PMC9889658, “The structure of MadC from Clostridium maddingley reveals new insights into class I lanthipeptide cyclases” (Frontiers in Microbiology, 2022)

How the values were obtained:
Conditions in all cases: both partners purified
[1] = target: T1, MadC (lanthionine cyclase of Clostridium sp. maddingley), His6-tag cleaved off (Clostridium sp. maddingley); experiment: ITC; MadC (200–600 μM) in the syringe, 20 injections of 2 μl into the cell with the leader variant (20–60 μM); 25°C; 50 mM HEPES, 500 mM NaCl, pH 7.5; at least triplicate
T1 construct: MadC, class I lanthipeptide cyclase, Clostridium sp. maddingley, NCBI EKQ50560.1, synthetic gene from GenScript in pET28b(+); calculated molecular weight 49.71 kDa; also called cleaved MadC; class I cyclase MadC; not shown: His6, N-terminal, cleaved

[2] = target: T1, MadC (lanthionine cyclase of …); experiment: as above; remark: listed apart in the source
[3] = target: T2, His6-MadC (hexa-histidine tagged cyclase MadC, wild type) (Clostridium sp. maddingley); experiment: SPR; His6-MadC variant captured on a poly-NTA (Ni2+) chip to 400–500 RU; L3 injected at 180 nM to 30 μM; 200 mM NaCl, 50 mM HEPES/NaOH pH 8; affinity from the maximum RU values
T2 construct: MadC, class I lanthipeptide cyclase, Clostridium sp. maddingley, NCBI EKQ50560.1, in pET28b(+) with N-terminal His6-tag and thrombin cleavage site; Thrombin cleavage site between the tag and MadC; Captured by the His-tag on the Ni-NTA chip in SPR; also the crystallised form (PDB 8BYK); also called wild-type MadC; not shown: His6, N-terminal, kept

| Binder | Kd [1] [µM] | Kd [2] [µM] | Kd [3] [µM] |
| --- | --- | --- | --- |
| MGKLDDFDLDVKVKADTTKVGPAITSKS [maddinglicin leader peptide construct madL2, Leader 2 (−23 − +5)] | 9.35 | – | – |
| MGKLDDFDLDVKVKADTTKVGPA [maddinglicin leader peptide construct madL1, Leader 1 (−23 – −1)] | 10.4 | 10.5 ± 4.3 | – |
| MGKLDDFDLDVKVKADTTKVGPAITSKSLCTPG (synthetic, unmodified peptide (no lanthionine rings); MadA 1-33 from Table S4) [maddinglicin leader peptide construct madL3, Leader 3 (−23 − +10)] | 5.69 | – | 16 ± 7 |
